Assays:
[1] = target: T1, synthetic mouse hepcidin (mouse, UniProt Q9EQ21 59-83); assay: dot blot on nitrocellulose, antibody 1:200, HRP secondary antibody, ECL
T1 construct: mature; also called murine hepcidin-25
T1 peptide (looked up): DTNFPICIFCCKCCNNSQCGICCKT
Description: Samples of synthetic human hepcidin (100 to 500 ng) or synthetic mouse) hepcidin (500 ng) (Peptide International, Louisville, Ky., USA), or of […] sera from a patient with an inflammatory disease, or from a healthy volunteer, were used. In one experiment, one sample of synthetic human hepcidin (500 ng) was treated with Laemmli buffer. The samples were directly spotted onto the nitrocellulose membrane and allowed to dry overnight. Non-specific sites were blocked by soaking the membrane in 5% skim milk in TBS-T (1 hr, at room temperature).
The primary antibodies (AN-LP1 antibody, or irrelevant antibody HPC4 directed against the epitope […] (SEQ ID NO: 11) of human protein C) were added at a dilution of 1:200 from a solution at 6 mg/ml. Incubation was performed for 2 h at room temperature or overnight at +4° C.
After 3 washes with TBS-T, the membranes were incubated with the secondary antibody conjugated with horseradish peroxidase (1:5000) for 1 h at room temperature.

[2] = target: T2, synthetic human hepcidin-25 (human); assay: SPR (BIAcore 2000), AN-LP1 immobilized on a CM5 chip, hepcidin 0.39 nM to 12.5 nM as analyte
T2 construct: Synthetic peptide (Peptide International for the blots); Serum hepcidin and liver hepcidin detected by AN-LP1 are written under this molecule
T2 peptide: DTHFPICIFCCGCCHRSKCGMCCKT
Description: To estimate AN-LP1 affinity constant and the antibody-antigen interactions, surface plasmon resonance (SPR) measurements were performed with a BIAcore 2000 instrument using carboxymethylated dextran CM5 chips (BIAcore, Piscataway, N.J.). AN-LP1 mAb, dilued at 2 μg/ml in 5 mM maleate buffer (pH 5.75), was immobilized on the CM5 chips by amine coupling.
Hepcidin was diluted in running buffer HBS-EP (0.01M HEPES pH 7.4; 0.15M NaCl, 3 mM EDTA and 0.005% polysorbate 20). Analyte was injected in 3 min, 60 μL/min injections and dissociation was monitored during 10 min. Surface Ab were generated by a 30-s to 1-min injection of glycine-HCL 10 mM pH 2. Kinetic rate constants were determined with purified antibodies. Concentrated hepcidin (0.39 nM to 12.5 nM) were injected over the chip surface at a rate of 60 μL/min to collect binding data. Data analyses were carried out with the BIAevaluation 3.0 software.

[3] = target: T3, irrelevant peptide PELAPVSSNLKYTLDC; assay: ELISA on coated irrelevant peptide, anti-mouse peroxidase, ABTS, read at 405 nm
T3 construct: Negative control in the ELISA; also called control peptide
T3 peptide: PELAPVSSNLKYTLDC
Description: The hepcidin binding properties of AN-LP1 produced by hybridoma CNCM I-3794 were tested by ELISA. Synthetic human hepcidin-25 was coated on 96-well boxes, with a concentration of 1-10 microgram/ml in 100 mM carbonate buffer, pH 9.5. One part of the wells is coated with an irrelevant peptide ([…], SEQ ID NO: 10) to be able to determine the specific component of measured signal. After one night of contact, the wells are washed 3 times with a solution of PBS/0.05% tween 20, then saturated with a solution of 0.1M Tris 20%, sucrose pH 7.8. The mouse serums are added in duplicates, with 10-fold serial dilutions. After a 6 h incubation, the wells were washed three times with a solution of PBS 0.05%, tween 20 and an anti-mouse antibody coupled with peroxidase (Biosource) diluted to 1/5,000 in PBS, 0.1% BSA, 0.01% Tween 20 was added for an additional 1 h30-2 h.

binding result [1]: no binding (tested: 500 ng) | Kd [2]: 0.099 nM | binding result [3]: no binding
B1: monoclonal antibody AN-LP1 produced by the hybridoma CNCM I-3794 (antibody, V domains shown)
VH: EVQLEESGGGLVQPGGSLKLSCAASGFTFSRYSMSWVRQTPEKRLEWVAYISDGGGSTYSPDTVKGRFSISRDNAQNTLYLQMSSLKSEDTAIFYCVRHARLEGYFDVWGAGTSVTVSS
VL: DVLTQSPASVAVSLGQRATISCRASESVDNYGNSFMNWYQQKPGQPPKLLIYRASNLESGIPARFSGSGSRTDFTLTINPVEADDVATYYCQQSNEDPTFGGGTKLEIKR
notes: also called AN-LP1 mAb; mAb AN-LP1

Source: US20100285027A1 (CENTRE NATIONAL DE LA RECHERCHE SCIENTIFIQUE, published 2010)
